Article PMC12802916
Numbering of substitutions follows the chain as printed.

T1: ST2/IL-33R Fc chimera (Mus musculus, UniProt P14719 27-332)
T1 sequence: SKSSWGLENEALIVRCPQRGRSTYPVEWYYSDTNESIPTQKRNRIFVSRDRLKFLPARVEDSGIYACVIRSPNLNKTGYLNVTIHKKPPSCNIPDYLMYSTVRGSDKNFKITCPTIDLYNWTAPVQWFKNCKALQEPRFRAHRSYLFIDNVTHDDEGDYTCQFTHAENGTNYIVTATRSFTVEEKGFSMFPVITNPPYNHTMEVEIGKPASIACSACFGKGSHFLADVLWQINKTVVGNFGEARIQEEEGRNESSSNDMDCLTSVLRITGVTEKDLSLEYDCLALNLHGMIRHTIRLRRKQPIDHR

B1: B RaptScore round6 2 (ssRNA)
RNA: GGGAGAACUUCGACUUGUAACAAGCUGUUUUGGAACAGCGCAUAACGAACCGUGCAGAGAUCCUC
B2: B RaptScore round6 3 (ssRNA)
RNA: B1 RNA with C50A
B3: B RaptScore round7 1 (ssRNA)
RNA: B1 RNA with A49U
B4: B RaptScore round7 3 (ssRNA)
RNA: B1 RNA with A49U, C50U

The binders below were run against T1, ST2/IL-33R Fc chimera (assay: SPR; SPR (Biacore T200): 295 mM NaCl, 5.4 mM KCl, 0.8 mM MgCl2, 18 mM CaCl2 (printed CaClCl2), 0.05% Tween 20, 20 mM Tris-HCl pH 7.6; temperature not stated. A/C: po).

Row | Binder | binding signal
1 | B1 | -4.91 % of B Round7 3
2 | B2 | -3.28 % of B Round7 3
3 | B3 | -4.12 % of B Round7 3
4 | B4 | -0.82 % of B Round7 3
